Measured values reported in patent US20240025959A1 (UNIVERSITY OF SOUTHERN CALIFORNIA, published 2024).

What was measured:
[1] = target: T1, AIM2 (human, full length) (human, UniProt O14862 1-343); experiment: co-IP with anti-Flag beads; HA-tagged Beclin 2 truncations co-transfected with Flag-AIM2 (FIG. 25K)
T1 construct: also called Flag-AIM2; GFP-AIM2
T1 sequence (looked up): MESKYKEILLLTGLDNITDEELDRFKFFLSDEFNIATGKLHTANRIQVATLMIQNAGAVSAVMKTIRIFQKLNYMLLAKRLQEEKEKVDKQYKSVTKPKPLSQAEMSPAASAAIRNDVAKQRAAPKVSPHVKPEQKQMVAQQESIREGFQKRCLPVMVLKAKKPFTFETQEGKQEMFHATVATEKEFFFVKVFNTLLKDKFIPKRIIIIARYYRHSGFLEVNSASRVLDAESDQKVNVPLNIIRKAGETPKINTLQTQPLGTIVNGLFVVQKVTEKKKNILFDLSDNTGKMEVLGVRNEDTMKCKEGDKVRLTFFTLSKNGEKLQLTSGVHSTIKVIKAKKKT
Description: (§1) Cell lysates were immunoprecipitated with anti-Flag beads and immunoblotted using indicated antibodies. […] Cell lysates were immunoprecipitated with anti-Flag beads and immunoblotted using indicated antibodies.
(§2) Whole cell lysates obtained 24 h post-transfection or via ligand stimulation were obtained using RIPA lysis buffer and shook on ice for 15 min. The HEK293T cell lysates were immunoprecipitated with anti-Flag conjugated beads (BioLegend) at 4° C. overnight.

[2] = target: T2, NLRP3 (human, full length) (human, UniProt Q96P20 1-1036, limits assumed); experiment: co-IP with anti-Flag beads; HA-tagged Beclin 2 truncations co-transfected with Flag-NLRP3 (FIG. 25L)
T2 construct: also called Flag-NLRP3; HA-NLRP3
T2 sequence (Q96P20 whole entry, the tested form may be a part): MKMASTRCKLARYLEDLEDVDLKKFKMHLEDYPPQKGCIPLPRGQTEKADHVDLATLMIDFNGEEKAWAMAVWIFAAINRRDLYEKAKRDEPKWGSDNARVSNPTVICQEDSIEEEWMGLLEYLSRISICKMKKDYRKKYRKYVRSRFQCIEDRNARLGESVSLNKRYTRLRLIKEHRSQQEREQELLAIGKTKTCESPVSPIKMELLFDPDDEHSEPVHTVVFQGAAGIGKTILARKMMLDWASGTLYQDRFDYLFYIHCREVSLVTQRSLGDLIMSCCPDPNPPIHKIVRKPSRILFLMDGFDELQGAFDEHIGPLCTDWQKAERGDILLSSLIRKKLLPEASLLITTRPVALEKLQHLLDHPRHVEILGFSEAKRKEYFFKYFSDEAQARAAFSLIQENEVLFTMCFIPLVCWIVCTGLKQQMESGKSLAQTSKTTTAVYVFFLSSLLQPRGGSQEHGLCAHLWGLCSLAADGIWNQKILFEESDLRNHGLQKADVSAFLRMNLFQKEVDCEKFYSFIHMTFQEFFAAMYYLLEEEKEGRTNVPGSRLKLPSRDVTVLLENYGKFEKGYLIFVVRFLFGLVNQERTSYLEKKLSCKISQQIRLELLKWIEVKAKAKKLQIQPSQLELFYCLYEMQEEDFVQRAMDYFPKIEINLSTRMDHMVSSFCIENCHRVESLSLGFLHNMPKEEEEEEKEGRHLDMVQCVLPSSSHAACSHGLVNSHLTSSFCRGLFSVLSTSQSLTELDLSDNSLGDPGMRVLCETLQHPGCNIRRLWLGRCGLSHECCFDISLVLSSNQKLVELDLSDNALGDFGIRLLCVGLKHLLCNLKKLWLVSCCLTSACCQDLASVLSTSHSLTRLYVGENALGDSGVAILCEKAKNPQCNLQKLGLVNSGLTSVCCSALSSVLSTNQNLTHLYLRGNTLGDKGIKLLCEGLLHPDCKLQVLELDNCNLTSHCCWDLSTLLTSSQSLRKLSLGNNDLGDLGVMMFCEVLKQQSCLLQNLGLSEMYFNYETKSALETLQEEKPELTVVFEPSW
Description: as §1, §2

[3] = target: T3, Beclin 2 (human, full length) (human, UniProt A8MW95 1-431); experiment: co-IP with anti-Flag beads and immunoblot; 293T cells co-transfected with HA-Beclin 2 and a Flag-tagged plasmid (FIG. 13C)
T3 construct: All tagged and endogenous human forms are kept under this one id; the form used is named under assay; also called BECN2; Flag-Beclin 2
T3 sequence: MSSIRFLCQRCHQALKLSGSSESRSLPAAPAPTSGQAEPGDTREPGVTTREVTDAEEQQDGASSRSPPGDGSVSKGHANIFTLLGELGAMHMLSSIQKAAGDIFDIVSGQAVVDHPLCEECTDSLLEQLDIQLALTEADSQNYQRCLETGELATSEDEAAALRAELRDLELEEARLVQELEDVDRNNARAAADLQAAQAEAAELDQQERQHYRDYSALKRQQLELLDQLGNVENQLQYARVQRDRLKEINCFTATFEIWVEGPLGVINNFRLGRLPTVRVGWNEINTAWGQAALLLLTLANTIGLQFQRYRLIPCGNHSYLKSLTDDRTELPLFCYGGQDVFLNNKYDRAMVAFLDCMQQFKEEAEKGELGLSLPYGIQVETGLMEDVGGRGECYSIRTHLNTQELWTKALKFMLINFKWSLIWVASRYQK

ULK1 = target: T4, ULK1 (human, UniProt O75385 1-1050); experiment: co-IP with anti-Flag beads and immunoblot; 293T cells transfected with the indicated Flag-tagged plasmid (FIG. 12B)
T4 construct: also called HA-ULK1
T4 sequence (looked up): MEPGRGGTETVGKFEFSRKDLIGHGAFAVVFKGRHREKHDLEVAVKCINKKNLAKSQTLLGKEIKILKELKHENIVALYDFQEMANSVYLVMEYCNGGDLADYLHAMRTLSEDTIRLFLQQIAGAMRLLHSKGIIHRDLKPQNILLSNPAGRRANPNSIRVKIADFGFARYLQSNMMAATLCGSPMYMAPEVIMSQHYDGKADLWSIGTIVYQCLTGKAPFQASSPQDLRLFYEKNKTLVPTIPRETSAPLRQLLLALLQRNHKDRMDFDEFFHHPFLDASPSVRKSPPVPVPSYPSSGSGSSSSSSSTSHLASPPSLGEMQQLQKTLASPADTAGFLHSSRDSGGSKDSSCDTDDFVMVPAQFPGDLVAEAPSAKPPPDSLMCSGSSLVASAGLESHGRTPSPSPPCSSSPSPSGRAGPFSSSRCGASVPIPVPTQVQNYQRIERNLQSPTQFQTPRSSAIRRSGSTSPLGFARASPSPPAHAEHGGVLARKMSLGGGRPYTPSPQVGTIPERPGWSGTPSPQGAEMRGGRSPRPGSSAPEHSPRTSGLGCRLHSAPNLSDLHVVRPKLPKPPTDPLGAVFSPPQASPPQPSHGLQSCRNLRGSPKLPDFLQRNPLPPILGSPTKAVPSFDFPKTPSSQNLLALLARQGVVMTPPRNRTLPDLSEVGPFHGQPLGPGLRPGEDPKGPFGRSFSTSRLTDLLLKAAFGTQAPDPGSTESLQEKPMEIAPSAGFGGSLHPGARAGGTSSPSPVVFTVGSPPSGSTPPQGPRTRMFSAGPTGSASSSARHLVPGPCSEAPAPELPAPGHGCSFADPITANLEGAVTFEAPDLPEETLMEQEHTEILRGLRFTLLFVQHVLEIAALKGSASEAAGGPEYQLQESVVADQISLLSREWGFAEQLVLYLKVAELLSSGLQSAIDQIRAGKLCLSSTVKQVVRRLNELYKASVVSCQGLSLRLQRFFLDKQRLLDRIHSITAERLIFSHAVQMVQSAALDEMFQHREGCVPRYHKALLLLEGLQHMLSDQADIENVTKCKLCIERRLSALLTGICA
Description: Data are representative of at least three independent experiments.
The secondary antibody (Veriblot for IP detection reagent HRP) that only recognized native IgG but not denatured IgG was applied for immunoblotting of proteins in immunoprecipitates. For immunoprecipitation of Flag-tagged proteins, cell lysates were incubated with anti-Flag beads (Sigma) at 4° C. overnight. The beads were washed four times with RIPA lysis buffer, and immunoprecipitates were eluted with 2×SDS loading buffer. Immunoblotting was performed by loading the samples on SDS-PAGE gels, conducting electrophoresis, transferring the samples to PVDF membranes (Bio-Rad), and then incubating the membranes with the indicated antibodies. For all immunoblots, the LumiGLO Chemiluminescent Substrate System from KPL (Gaithersburg, MD) was used for protein detection.

[4] = target: T3, Beclin 2 (human, full length); experiment: co-IP with anti-Flag beads and immunoblot; HEK293T cells co-transfected with HA-Beclin 2 and Flag-tagged SNARE or RAB proteins (FIG. 32A)
Description: Whole cell lysates obtained 24 h post-transfection or via ligand stimulation were obtained using RIPA lysis buffer and shook on ice for 15 min. The HEK293T cell lysates were immunoprecipitated with anti-Flag conjugated beads (BioLegend) at 4° C. overnight. […] The beads were washed five times with RIPA lysis buffer, and immunoprecipitates were eluted with 2×SDS loading buffer and subjected to SDS-PAGE gel electrophoresis, followed by immunoblotting. The secondary antibody (Veriblot for IP detection, HRP-conjugated) that only recognized native IgG but not denatured IgG was applied for immunoblotting of endogenous proteins in immunoprecipitates.

B1: Beclin 2/ΔECD (ECD domain deletion fragment, residues 1-248) (other)
chain: MSSIRFLCQRCHQALKLSGSSESRSLPAAPAPTSGQAEPGDTREPGVTTREVTDAEEQQDGASSRSPPGDGSVSKGHANIFTLLGELGAMHMLSSIQKAAGDIFDIVSGQAVVDHPLCEECTDSLLEQLDIQLALTEADSQNYQRCLETGELATSEDEAAALRAELRDLELEEARLVQELEDVDRNNARAAADLQAAQAEAAELDQQERQHYRDYSALKRQQLELLDQLGNVENQLQYARVQRDRLKE
notes: HA-tagged truncation; also called Beclin 2/AECD
binding result [1]: no binding | binding result [2]: no binding

B2: RAB8A (other, human, UniProt P61006 1-207, looked up)
chain: MAKTYDYLFKLLLIGDSGVGKTCVLFRFSEDAFNSTFISTIGIDFKIRTIELDGKRIKLQIWDTAGQERFRTITTAYYRGAMGIMLVYDITNEKSFDNIRNWIRNIEEHASADVEKMILGNKCDVNDKRQVSKERGEKLALDYGIKFMETSAKANINVENAFFTLARDIKAKMDKKLEGNSPQGSNQGVKITPDQQKRSSFFRCVLL
binding result [3]: binds

B3: VAMP8 (other, human, UniProt Q9BV40 1-100, looked up)
chain: MEEASEGGGNDRVRNLQSEVEGVKNIMTQNVERILARGENLEHLRNKTEDLEATSEHFKTTSQKVARKFWWKNVKMIVLICVIVFIIILFIVLFATGAFS
binding result [3]: binds

B4: ATG9A (human) (other, UniProt Q7Z3C6 1-839, looked up)
chain: MAQFDTEYQRLEASYSDSPPGEEDLLVHVAEGSKSPWHHIENLDLFFSRVYNLHQKNGFTCMLIGEIFELMQFLFVVAFTTFLVSCVDYDILFANKMVNHSLHPTEPVKVTLPDAFLPAQVCSARIQENGSLITILVIAGVFWIHRLIKFIYNICCYWEIHSFYLHALRIPMSALPYCTWQEVQARIVQTQKEHQICIHKRELTELDIYHRILRFQNYMVALVNKSLLPLRFRLPGLGEAVFFTRGLKYNFELILFWGPGSLFLNEWSLKAEYKRGGQRLELAQRLSNRILWIGIANFLLCPLILIWQILYAFFSYAEVLKREPGALGARCWSLYGRCYLRHFNELEHELQSRLNRGYKPASKYMNCFLSPLLTLLAKNGAFFAGSILAVLIALTIYDEDVLAVEHVLTTVTLLGVTVTVCRSFIPDQHMVFCPEQLLRVILAHIHYMPDHWQGNAHRSQTRDEFAQLFQYKAVFILEELLSPIVTPLILIFCLRPRALEIIDFFRNFTVEVVGVGDTCSFAQMDVRQHGHPQWLSAGQTEASVYQQAEDGKTELSLMHFAITNPGWQPPRESTAFLGFLKEQVQRDGAAASLAQGGLLPENALFTSIQSLQSESEPLSLIANVVAGSSCRGPPLPRDLQGSRHRAEVASALRSFSPLQPGQAPTGRAHSTMTGSGVDARTASSGSSVWEGQLQSLVLSEYASTEMSLHALYMHQLHKQQAQAEPERHVWHRRESDESGESAPDEGGEGARAPQSIPRSASYPCAAPRPGAPETTALHGGFQRRYGGITDPGTVPRVPSHFSRLPLGGWAEDGQSASRHPEPVPEEGSEDELPPQVHKV
notes: Transmembrane protein; co-IP from RIPA lysates; Tagged and endogenous human forms kept under one id; also called Flag-ATG9A; HA-ATG9A
binding result (ULK1): binds

B5: STX7 (other, human, UniProt O15400 1-261, looked up)
chain: MSYTPGVGGDPAQLAQRISSNIQKITQCSVEIQRTLNQLGTPQDSPELRQQLQQKQQYTNQLAKETDKYIKEFGSLPTTPSEQRQRKIQKDRLVAEFTTSLTNFQKVQRQAAEREKEFVARVRASSRVSGSFPEDSSKERNLVSWESQTQPQVQVQDEEITEDDLRLIHERESSIRQLEADIMDINEIFKDLGMMIHEQGDVIDSIEANVENAEVHVQQANQQLSRAADYQRKSRKTLCIIILILVIGVAIISLIIWGLNH
binding result [3]: binds

B6: VAMP7 (other, human, UniProt P51809 1-220, looked up)
chain: MAILFAVVARGTTILAKHAWCGGNFLEVTEQILAKIPSENNKLTYSHGNYLFHYICQDRIVYLCITDDDFERSRAFNFLNEIKKRFQTTYGSRAQTALPYAMNSEFSSVLAAQLKHHSENKGLDKVMETQAQVDELKGIMVRNIDLVAQRGERLELLIDKTENLVDSSVTFKTTSRNLARAMCMKNLKLTIIIIIVSIVFIYIIVSPLCGGFTWPSCVKK
binding result [4]: binds

B7: Beclin 2/ECD (ECD domain alone) (other)
chain: INCFTATFEIWVEGPLGVINNFRLGRLPTVRVGWNEINTAWGQAALLLLTLANTIGLQFQRYRLIPCGNHSYLKSLTDDRTELPLFCYGGQDVFLNNKYDRAMVAFLDCMQQFKEEAEKGELGLSLPYGIQVETGLMEDVGGRGECYSIRTHLNTQELWTKALKFMLINFKWSLIWVASRYQK
notes: HA-tagged truncation
binding result [1]: no binding | binding result [2]: no binding

B8: STX6 (other, human, UniProt O43752 1-255, looked up)
chain: MSMEDPFFVVKGEVQKAVNTAQGLFQRWTELLQDPSTATREEIDWTTNELRNNLRSIEWDLEDLDETISIVEANPRKFNLDATELSIRKAFITSTRQVVRDMKDQMSTSSVQALAERKNRQALLGDSGSQNWSTGTTDKYGRLDRELQRANSHFIEEQQAQQQLIVEQQDEQLELVSGSIGVLKNMSQRIGGELEEQAVMLEDFSHELESTQSRLDNVMKKLAKVSHMTSDRRQWCAIAILFAVLLVVLILFLVL
notes: also called syntaxin 6
binding result [3]: binds

B9: STX8 (other, human, UniProt Q9UNK0 1-236, looked up)
chain: MAPDPWFSTYDSTCQIAQEIAEKIQQRNQYERKGEKAPKLTVTIRALLQNLKEKIALLKDLLLRAVSTHQITQLEGDRRQNLLDDLVTRERLLLASFKNEGAEPDLIRSSLMSEEAKRGAPNPWLFEEPEETRGLGFDEIRQQQQKIIQEQDAGLDALSSIISRQKQMGQEIGNELDEQNEIIDDLANLVENTDEKLRNETRRVNMVDRKSASCGMIMVILLLLVAIVVVAVWPTN
binding result [3]: binds
